# Biological target: β subunit of DNA polymerase III of Escherichia coli (Escherichia coli, UniProt P0A988 1-366)
# Experiment: cell-based or functional assay
# Sequence of β subunit of DNA polymerase III of Escherichia coli (P0A988 whole entry): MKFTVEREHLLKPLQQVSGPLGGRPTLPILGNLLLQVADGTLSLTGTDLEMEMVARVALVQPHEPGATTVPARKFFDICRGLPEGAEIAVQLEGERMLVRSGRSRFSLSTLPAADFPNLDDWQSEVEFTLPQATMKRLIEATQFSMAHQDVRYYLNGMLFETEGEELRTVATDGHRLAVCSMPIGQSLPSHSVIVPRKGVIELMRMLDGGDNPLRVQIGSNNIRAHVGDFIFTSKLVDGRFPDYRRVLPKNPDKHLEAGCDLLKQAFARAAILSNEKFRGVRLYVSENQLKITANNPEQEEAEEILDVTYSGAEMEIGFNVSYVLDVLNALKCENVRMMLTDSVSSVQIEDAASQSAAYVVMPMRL
binder,measurement,value
"VTLLDPQMERQLVLGL [P16 peptide, the 16 last residues of Pol IV DNA polymerase of E. coli]",β-dependent Pol IV activity (ratio of β-dependent to β-independent polymerase activities),~30 fold decrease

# Source: patent US20070275898A1 (CENTRE NATIONAL DE LA RECHERCHE SCIENTIFIQUE, published 2007)
